Assay results from ChEMBL document CHEMBL2074029, “Substrate specificities of rat oatp1 and ntcp: implications for hepatic organic anion uptake” (Am J Physiol Gastrointest Liver Physiol, 2003).

Assays:
Type in all cases: functional, cell-based
[1] = substrate: C[C@H](CCC(=O)NCCS(=O)(=O)O)C1CC[C@H]2[C@@H]3C[C@H](O)[C@@H]4C[C@H](O)CC[C@]4(C)[C@H]3CC[C@]12C; assay: (§1) TP_TRANSPORTER: uptake in NTCP-expressing HeLa cells
[2] = substrate: O=C1OC(c2ccc(O)c(S(=O)(=O)O)c2)(c2ccc(O)c(S(=O)(=O)O)c2)c2c(Br)c(Br)c(Br)c(Br)c21; assay: as §1
[3] = substrate: C[C@H](CCC(=O)NCCS(=O)(=O)O)[C@H]1CC[C@H]2[C@@H]3CC[C@@H]4C[C@H](O)CC[C@]4(C)[C@H]3C[C@H](O)[C@]12C; assay: as §1
[4] = substrate: C[C@H](CCC(=O)NCCS(=O)(=O)O)C1CC[C@H]2[C@@H]3C[C@H](O)[C@@H]4C[C@H](O)CC[C@]4(C)[C@H]3CC[C@]12C; assay: (§2) TP_TRANSPORTER: uptake in Oatp1-expressing HeLa cells
[5] = substrate: C[C@H](CCC(=O)NCCS(=O)(=O)O)[C@H]1CC[C@H]2[C@@H]3CC[C@@H]4C[C@H](O)CC[C@]4(C)[C@H]3C[C@H](O)[C@]12C; assay: as §2
[6] = substrate: C[C@H](CCC(=O)O)[C@H]1CC[C@H]2[C@@H]3C[C@H](O)[C@@H]4C[C@H](O)CC[C@]4(C)[C@H]3CC[C@]12C; assay: as §2

B1: Hepatic sodium/bile acid cotransporter (Rattus norvegicus) (protein)
chain: MEVHNVSAPFNFSLPPGFGHRATDKALSIILVLMLLLIMLSLGCTMEFSKIKAHLWKPKGVIVALVAQFGIMPLAAFLLGKIFHLSNIEALAILICGCSPGGNLSNLFTLAMKGDMNLSIVMTTCSSFSALGMMPLLLYVYSKGIYDGDLKDKVPYKGIMISLVIVLIPCTIGIVLKSKRPHYVPYILKGGMIITFLLSVAVTALSVINVGNSIMFVMTPHLLATSSLMPFSGFLMGYILSALFQLNPSCRRTISMETGFQNIQLCSTILNVTFPPEVIGPLFFFPLLYMIFQLAEGLLIIIIFRCYEKIKPPKDQTKITYKAAATEDATPAALEKGTHNGNIPPLQPGPSPNGLNSGQMAN
Km [1]: 6.8 µM
Km [2]: 3.7 µM
Km [3]: 7.4 µM

B2: Solute carrier organic anion transporter family member 1A1 (Rattus norvegicus) (protein)
chain: MEETEKKIATQEGRLFSKMKVFLLSLTCACLTKSLSGVYMNSMLTQIERQFDISTSVAGLINGSFEIGNLFFIVFVSYFGTKLHRPVVIGIGCVIMGLGCLLMSLPHFFMGRYEYETTISPTGNLSSNSFLCMENRTQTLKPTQDPAECVKEMKSLMWICVMVGNIIRGIGETPIVPLGISYIEDFAKSENSPLYIGILEMGKVAGPIFGLLLGSYCAQIYVDIGSVNTDDLTITPSDTRWVGAWWIGFLVCAGVNILTSIPFFFLPKALPKKGQQENVAVTKDGKVEKYGGQAREENLGITKDFLTFMKRLFCNPIYMLFILTSVLQVNGFINKFTFLPKYLEQQYGKSTAEAIFLIGVYSLPPICLGYLIGGFIMKKFKITVKKAAYLAFCLSVFEYLLFLCHFMLTCDNAAVAGLTTSYKGVQHQLHVESKVLADCNTRCSCSTNTWDPVCGDNGVAYMSACLAGCKKFVGTGTNMVFQDCSCIQSLGNSSAVLGLCKKGPECANRLQYFLILTIIISFIYSLTAIPGYMVFLRCVKSEEKSLGVGLHTFCIRVFAGIPAPVYFGALIDRTCLHWGTLKCGQRGACRMYDINSFRHIYLGLPIALRGSSYLPAFFILILMRKFQFPGDIDSSATDHTEMMLGEKESEHTDVHGSPQVENDGELKTKL
Km [4]: 3.3 µM
Km [5]: 3.5 µM
Km [6]: 17.5 µM
